Molecular target: GST-CTD substrate (human)

KmCTD from in vitro kinase assay (32P-GST-CTD product) against varying concentrations of GST-CTD substrate | KmCTD from in vitro kinase assay (32P-GST-CTD product) against varying concentrations of GST-CTD substrate, 10 μM ATP, 15 min | Substance
2 µM | – | CDK12^715–1052/CycK^11–267 complex (from UniProt Q9NYV4 715-1052; O75909 11-267)
– | 0.3 µM | full length CDK12/CycK1 complex (from UniProt Q9NYV4-1 1-1490; O75909 1-580)

Source: paper PMC4656997
